# Data published in patent publication US20220119534A1 (DRAGONFLY THERAPEUTICS, published 2022).
# Substitutions are numbered along the chain they refer to.
# T1: human CLEC12A expressed on cells (human, UniProt Q5QGZ9 1-265)
# T1 construct: Transduced isogenic cells or endogenous expression on AML cells; also called RMA-hCLEC12A; Ba/F3-hCLEC12A
# T1 sequence: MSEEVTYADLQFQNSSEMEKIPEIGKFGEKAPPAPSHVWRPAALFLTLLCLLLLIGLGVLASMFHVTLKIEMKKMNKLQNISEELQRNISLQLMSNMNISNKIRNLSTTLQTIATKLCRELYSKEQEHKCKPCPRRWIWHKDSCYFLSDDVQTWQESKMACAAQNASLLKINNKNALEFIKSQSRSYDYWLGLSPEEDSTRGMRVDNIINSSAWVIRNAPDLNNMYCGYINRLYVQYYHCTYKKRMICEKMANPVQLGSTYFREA
# T2: Human CLEC12A expressed on cells (Ba/F3-hCLEC12A, PL21, HL60) (human, UniProt Q5QGZ9 1-265)
# T2 sequence: T1 sequence
# T3: recombinant human CLEC12A-His (human, UniProt Q5QGZ9 65-265)
# T3 construct: also called hCLEC12A-His; hCLEC12A
# T3 sequence: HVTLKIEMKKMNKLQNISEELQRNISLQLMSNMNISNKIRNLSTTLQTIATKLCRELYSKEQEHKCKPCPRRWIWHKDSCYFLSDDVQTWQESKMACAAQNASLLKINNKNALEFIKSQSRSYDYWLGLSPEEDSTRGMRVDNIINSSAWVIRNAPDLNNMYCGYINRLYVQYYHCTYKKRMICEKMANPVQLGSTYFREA
# B1: AB0191 (other)
# chain: EVQLVESGGGVVQPGGSLRLSCAASGFTFNSFGMHWVRQAPGKCLEWVAFISSGSTSIYYANTVKGRFTISRDNSKNTLYLQMNSLRAEDTAVYYCARDGYPTGGAMDYWGQGTSVTVSSGGGGSGGGGSGGGGSGGGGSDIQMTQSPSSLSASVGDRVTITCKASQDIYNYLSWFQQKPGKAPKPLIYRANILVSGVPSRFSGSGSGQDYTFTISSLQPEDIATYYCLQFDAFPFTFGCGTKLEIKGSDKTHTCPPCPAPELLGGPSVFLFPPKPKDTLMISRTPEVTCVVVDVSHEDPEVKFNWYVDGVEVHNAKTKPREEQYNSTYRVVSVLTVLHQDWLNGKEYKCKVSNKALPAPIEKTISKAKGQPREPRVYTLPPCRDELTKNQVSLTCLVKGFYPSDIAVEWESNGQPENNYKTTPPVLVSDGSFTLYSKLTVDKSRWQQGNVFSCSVMHEALHNHYTQKSLSLSPG
# heavy: EVQLVESGGGLVKPGGSLRLSCAASGFTFSSYSMNWVRQAPGKGLEWVSSISSSSSYIYYADSVKGRFTISRDNAKNSLYLQMNSLRAEDTAVYYCARGAPIGAAAGWFDPWGQGTLVTVSSASTKGPSVFPLAPSSKSTSGGTAALGCLVKDYFPEPVTVSWNSGALTSGVHTFPAVLQSSGLYSLSSVVTVPSSSLGTQTYICNVNHKPSNTKVDKKVEPKSCDKTHTCPPCPAPELLGGPSVFLFPPKPKDTLMISRTPEVTCVVVDVSHEDPEVKFNWYVDGVEVHNAKTKPREEQYNSTYRVVSVLTVLHQDWLNGKEYKCKVSNKALPAPIEKTISKAKGQPREPQVCTLPPSRDELTENQVSLTCLVKGFYPSDIAVEWESNGQPENNYKTTPPVLDSDGSFFLYSWLTVDKSRWQQGNVFSCSVMHEALHNHYTQKSLSLSPG
# light: DIQMTQSPSSVSASVGDRVTITCRASQGISSWLAWYQQKPGKAPKLLIYAASSLQSGVPSRFSGSGSGTDFTLTISSLQPEDFATYYCQQGVSFPRTFGGGTKVEIKRTVAAPSVFIFPPSDEQLKSGTASVVCLLNNFYPREAKVQWKVDNALQSGNSQESVTEQDSKDSTYSLSSTLTLSKADYEKHKVYACEVTHQGLSSPVTKSFNRGEC
# notes: As AB0185
# B2: AB0185 (other)
# chain: DIQMTQSPSSLSASVGDRVTITCKASQDIYNYLSWFQQKPGKAPKPLIYRANILVSGVPSRFSGSGSGQDYTFTISSLQPEDIATYYCLQFDAFPFTFGCGTKLEIKGGGGSGGGGSGGGGSGGGGSEVQLVESGGGVVQPGGSLRLSCAASGFTFNSFGMHWVRQAPGKCLEWVAFISSGSTSIYYANTVKGRFTISRDNSKNTLYLQMNSLRAEDTAVYYCARDGYPTGGAMDYWGQGTSVTVSSGSDKTHTCPPCPAPELLGGPSVFLFPPKPKDTLMISRTPEVTCVVVDVSHEDPEVKFNWYVDGVEVHNAKTKPREEQYNSTYRVVSVLTVLHQDWLNGKEYKCKVSNKALPAPIEKTISKAKGQPREPRVYTLPPCRDELTKNQVSLTCLVKGFYPSDIAVEWESNGQPENNYKTTPPVLVSDGSFTLYSKLTVDKSRWQQGNVFSCSVMHEALHNHYTQKSLSLSPG
# heavy: B1 heavy
# light: B1 light
# notes: Humanized 9F11.B7 F3' TriNKET; scFv-Fc chain built from the general F3' description
# B3: AB0186 (other)
# chain: B2 chain with S158A
# heavy: B1 heavy
# light: B1 light
# notes: As AB0185
# B4: AB0189 (other)
# chain: B2 chain with Q3K, F73L, S158A
# heavy: B1 heavy
# light: B1 light
# notes: As AB0185
# B5: AB0195 (other)
# chain: B1 chain with S31A, Q143K, F213L
# heavy: B1 heavy
# light: B1 light
# notes: As AB0185
# B6: AB0037 mAb (Humanized 1602 anti-CLEC12A mAb) (antibody, V domains shown)
# VH: QLQLQESGPGLVKPSETLSLTCTVSGFSLTNYGLHWIRQPPGKGLEWIGVIWSGGKTDYNPSLKSRVTISKDTSKNQFSLKLSSVQAADTAVYYCAKYDYDDSLDYWGQGTLVTVSS
# VL: DIQMTQSPSSLSASVGDRVTITCHASQNINFWLSWYQQKPGKAPKLLIYEASNLHTGVPSRFSGSGSGTRFTLTISSLQPEDIATYYCQQSHSYPLTFGGGTKLEIK
# B7: F3'-1292 (other)
# chain: QLQLQESGPGLVKPSETLSLTCTVSGFSLTNYGLHWIRQPPGKCLEWIGVIWSGGKTDYNPSLKSRVTISKDTSKNQFSLKLSSVQANDTAVYYCAKYDYDDSLDYWGQGTLVTVSSGGGGSGGGGSGGGGSGGGGSDIQMTQSPSSLSASVGDRVTITCHASQNINFWLSWYQQKPGKIPKLLIYEASNLHTGVPSRFSGSGSGTRFTLTISSLQPEDIATYYCQQSHSYPLTFGCGTKLEIKGSDKTHTCPPCPAPELLGGPSVFLFPPKPKDTLMISRTPEVTCVVVDVSHEDPEVKFNWYVDGVEVHNAKTKPREEQYNSTYRVVSVLTVLHQDWLNGKEYKCKVSNKALPAPIEKTISKAKGQPREPRVYTLPPCRDELTKNQVSLTCLVKGFYPSDIAVEWESNGQPENNYKTTPPVLVSDGSFTLYSKLTVDKSRWQQGNVFSCSVMHEALHNHYTQKSLSLSPG
# heavy: B1 heavy
# light: B1 light
# notes: F3' TriNKET, scFv-Fc chain built from the general F3' description; semi-purified
# B8: F3'-1296 (other)
# chain: B7 chain with K97R
# heavy: B1 heavy
# light: B1 light
# notes: As F3'-1292
# B9: F3'-1297 (other)
# chain: B7 chain with I180A
# heavy: B1 heavy
# light: B1 light
# notes: As F3'-1292
# B10: F3'-1306 (other)
# chain: DIQMTQSPSSLSASVGDRVTITCHASQNINFWLSWYQQKPGKAPKLLIYEASNLHTGVPSRFSGSGSGTRFTLTISSLQPEDIATYYCQQSHSYPLTFGCGTKLEIKGGGGSGGGGSGGGGSGGGGSQLQLQESGPGLVKPSETLSLTCTVSGFSLTNYGLHWIRQPPGKCLEWIGVIWSGGKTDYNPSLKSRVTISKDTSKNQFSLKLSSVQANDTAVYYCAKYDYDDSLDYWGQGTLVTVSSGSDKTHTCPPCPAPELLGGPSVFLFPPKPKDTLMISRTPEVTCVVVDVSHEDPEVKFNWYVDGVEVHNAKTKPREEQYNSTYRVVSVLTVLHQDWLNGKEYKCKVSNKALPAPIEKTISKAKGQPREPRVYTLPPCRDELTKNQVSLTCLVKGFYPSDIAVEWESNGQPENNYKTTPPVLVSDGSFTLYSKLTVDKSRWQQGNVFSCSVMHEALHNHYTQKSLSLSPG
# heavy: B1 heavy
# light: B1 light
# notes: As F3'-1292
# Target: T1, human CLEC12A expressed on cells
# Test: flow cytometry, HL60
EC50 [nM],Max binding MFI [MFI],Binder
0.6,420,B1
0.4,372,B2
0.5,412,B3
0.7,420,B4
0.7,551,B5

# Target: T2, Human CLEC12A expressed on cells …
# Test: cell-based or functional assay
"% Max, ADCP activity of M0 macrophages against PL21 cells [%]","EC50, ADCP activity of M0 macrophages against PL21 cells [nM]",Binder
11,0.05,B6

# Target: T3, recombinant human CLEC12A-His
# Test: SPR screening, semi-purified
# Protocol: Binding affinities of the 18 semi-purified TriNKETs for hCLEC12A were assessed by SPR in screening.
Kd [nM],koff [s⁻¹],kon [M⁻¹ s⁻¹],Binder
3.22,0.0013,402000,B7
1.34,0.00117,874000,B8
2.79,0.00141,504000,B9
5.16,0.0489,9.48e+06,B10

# Target: T3, recombinant human CLEC12A-His
# Test: SPR screening, semi-purified
# Remark: another data set of the same source
Kd [nM],koff [s⁻¹],kon [M⁻¹ s⁻¹],Binder
1.73,0.00126,728000,B1
1.4,0.00101,726000,B2
1.04,0.00117,1.12e+06,B3
1.21,0.00127,1.04e+06,B4
1.68,0.00129,766000,B5

# Target: T1, human CLEC12A expressed on cells
# Test: flow cytometry, hCLEC12A+ Ba/F3
EC50 [nM],Max binding MFI [MFI],Binder
0.6,7940,B1
0.7,8020,B2
0.7,8160,B3
1.3,8760,B4
0.6,10800,B5
